Assay results reported in paper PMC6019534.

Biological target: MbnN from Methylosinus trichosporium OB3b, tagless (C-terminal His6 tag removed by TEV protease) (Methylosinus trichosporium OB3b)
Assay: native gel or EMSA

- stoichiometry N: 2
Substance: MbnN from Methylosinus trichosporium OB3b, tagless (C-terminal His6 tag removed by TEV protease) (enzyme)
